This note sets out measurements from publication PMC4222368, “A human mitochondrial poly(A) polymerase mutation reveals the complexities of post-transcriptional mitochondrial gene expression” (Human Molecular Genetics, 2014).

The series concerns the molecule itself. Put plainly: SEC; gel filtration analysis of wild-type and mutant mtPAP isolated to electrophoretic purity. (Size exclusion chromatography separates by hydrodynamic size, large species first.)

B1: human mitochondrial poly(A) polymerase (mtPAP), wild type, residues 44-538 (enzyme, UniProt Q9NVV4 44-538, looked up)
chain: EQPSGSVETGFEDKIPKRRFSEMQNERREQAQRTVLIHCPEKISENKFLKYLSQFGPINNHFFYESFGLYAVVEFCQKESIGSLQNGTHTPSTAMETAIPFRSRFFNLKLKNQTSERSRVRSSNQLPRSNKQLFELLCYAESIDDQLNTLLKEFQLTEENTKLRYLTCSLIEDMAAAYFPDCIVRPFGSSVNTFGKLGCDLDMFLDLDETRNLSAHKISGNFLMEFQVKNVPSERIATQKILSVLGECLDHFGPGCVGVQKILNARCPLVRFSHQASGFQCDLTTNNRIALTSSELLYIYGALDSRVRALVFSVRCWARAHSLTSSIPGAWITNFSLTMMVIFFLQRRSPPILPTLDSLKTLADAEDKCVIEGNNCTFVRDLSRIKPSQNTETLELLLKEFFEYFGNFAFDKNSINIRQGREQNKPDSSPLYIQNPFETSLNISKNVSQSQLQKFVDLARESAWILQQEDTDRPSISSNRPWGLVSLLLPSAPNR
notes: human mitochondrial poly(A) polymerase (MTPAP, formerly PAPD1), residues 44-538, in pET28a; also called wild-type mtPAP; WT
Take B1: the stoichiometry N (as a rule, a count of units in the complex or per binding partner) stood at 2.

B2: human mitochondrial poly(A) polymerase (mtPAP), p.N478D mutant, residues 44-538 (enzyme, UniProt Q9NVV4 44-538, looked up)
chain: EQPSGSVETGFEDKIPKRRFSEMQNERREQAQRTVLIHCPEKISENKFLKYLSQFGPINNHFFYESFGLYAVVEFCQKESIGSLQNGTHTPSTAMETAIPFRSRFFNLKLKNQTSERSRVRSSNQLPRSNKQLFELLCYAESIDDQLNTLLKEFQLTEENTKLRYLTCSLIEDMAAAYFPDCIVRPFGSSVNTFGKLGCDLDMFLDLDETRNLSAHKISGNFLMEFQVKNVPSERIATQKILSVLGECLDHFGPGCVGVQKILNARCPLVRFSHQASGFQCDLTTNNRIALTSSELLYIYGALDSRVRALVFSVRCWARAHSLTSSIPGAWITNFSLTMMVIFFLQRRSPPILPTLDSLKTLADAEDKCVIEGNNCTFVRDLSRIKPSQNTETLELLLKEFFEYFGNFAFDKNSINIRQGREQNKPDSSPLYIQDPFETSLNISKNVSQSQLQKFVDLARESAWILQQEDTDRPSISSNRPWGLVSLLLPSAPNR
notes: human mitochondrial poly(A) polymerase (MTPAP), residues 44-538, in pET28a, with the patient mutation p.N478D (c.1432A>G) made with the QuikChange kit; The mutation occurs in patients (spastic ataxia with optic atrophy); also called p.N478D mtPAP; mutant mtPAP
In the case of B2, the “stoichiometry N” value was 2.
